Data taken from paper PMC12406181 (2025).

Molecular target: T1, HER2-DIVMP (HER2 domain IV model receptor) domain IV fragment (Homo sapiens, UniProt P04626)
T1 chain: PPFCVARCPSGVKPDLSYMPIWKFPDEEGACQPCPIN
Assay: fluorescence spectroscopy titration

B1: A9-PEG-A9 dimer (peptide)
chain: QDVNTAVAW
modifications: not fully specified; two A9 chains N-terminally linked via PEG (1 kDa), C-terminal amide; HER2-DIVMP is a synthetic two-chain disulfide-linked peptide
- Kd: 5.7 nM
